Experimental data: patent US20110271408A1 (University of California, published 2011)

Target: T1, HAB1-GAL4 AD (Gal4 activation domain (AD)-PP2C fusion protein encoded by pAD-HAB1) (UniProt Q9CAJ0 1-511, limits assumed)
T1 construct: Prey of the yeast two-hybrid assays; also called HAB1-AD
T1 sequence (looked up): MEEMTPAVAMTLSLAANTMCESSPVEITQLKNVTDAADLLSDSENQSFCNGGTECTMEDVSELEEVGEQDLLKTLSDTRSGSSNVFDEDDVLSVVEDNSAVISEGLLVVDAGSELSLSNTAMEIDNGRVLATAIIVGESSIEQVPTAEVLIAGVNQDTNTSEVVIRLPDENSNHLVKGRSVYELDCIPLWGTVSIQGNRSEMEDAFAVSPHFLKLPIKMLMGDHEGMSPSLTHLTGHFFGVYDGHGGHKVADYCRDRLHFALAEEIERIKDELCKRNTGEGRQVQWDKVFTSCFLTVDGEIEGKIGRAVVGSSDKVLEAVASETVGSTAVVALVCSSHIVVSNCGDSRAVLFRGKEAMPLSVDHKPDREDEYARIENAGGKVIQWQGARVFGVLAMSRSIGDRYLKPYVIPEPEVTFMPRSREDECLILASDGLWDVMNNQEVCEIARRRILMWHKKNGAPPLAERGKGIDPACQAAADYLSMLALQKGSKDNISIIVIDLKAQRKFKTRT
Experiment: yeast two-hybrid X-gal staining on increasing concentrations of fenhexamid (Y190 pAD-HAB1)

B1: PYL2 K64R, Y124H, M164I mutant, GAL4 BD fusion (pBD-PYL2) (receptor)
chain: MSSSPAVKGLTDEEQKTLEPVIKTYHQFEPDPTTCTSLITQRIHAPASVVWPLIRRFDNPERYRHFVKRCRLISGDGDVGSVREVTVISGLPASTSTERLEFVDDDHRVLSFRVVGGEHRLKNHKSVTSVNEFLNQDSGKVYTVVLESYTVDIPEGNTEEDTKIFVDTVVKLNLQKLGVAATSAPMHDDE
B1: no binding.
